Results from the Immune Epitope Database (IEDB).
pKd: −log10 of the molar value.

What follows are sequences tested against HLA-A*03:01 (assay: IEDB peptide-MHC binding, purified MHC/competitive/fluorescence; filed as Kd, often an IC50 or EC50 that approximates it; ≥ and ≤ were set here for values at or beyond the usual limits of such assays). Conditions: source organism: Coxiella burnetii.

Sequence	pKd
ASFQNYLNDY	≤ 3.00
ATSNLIYKLK	≤ 5.30
GVDRFITYK	≤ 5.30
ISYDRFTVGK	≤ 5.30
KLILFVYRY	≤ 4.30
KTFVYPMGLY	≤ 5.30
LLSTLCLYRK	≤ 4.30
LSATFITSK	≤ 5.30
SLFANMNGHY	≤ 4.30
VLDCNYLSK	≤ 5.30

The sequences below were run against HLA-A*02:01 in the same assay as above. Conditions: source organism: Coxiella burnetii.

Sequence	pKd
FLFFYSGLIL	≤ 5.30
FLIAVFARHL	≤ 5.30
IMIDRLIEQL	≤ 5.30
LLWHGVSTL	≤ 5.30
MLWLPLLLIL	≤ 5.30
NMFQHLPYL	≤ 5.30
RMYISFFPL	≤ 5.30
VIDDLIVYRV	≤ 4.30
YLLDRCPFL	≤ 5.30
YLVNHPEVL	≤ 4.30

These sequences were tested against HLA-A*01:01 in the same assay as above. Conditions: source organism: Coxiella burnetii.

Sequence	pKd
ETYNSINKY	≤ 3.00
FFEDFTHRY	≤ 3.00
HTYYLIGFLY	≤ 4.30
KTEQDKLSY	≤ 4.30
LTLLLNWVNY	≤ 4.30
MVEEKYNYFY	≤ 5.30
QSGWTIHHY	≤ 3.00
SLESGFTYY	≤ 5.30
VSDATVAKWY	≤ 4.30
VTLVEFFDY	≤ 3.00

The sequences below were run against HLA-B*44:02 in the same assay as above. Conditions: source organism: Coxiella burnetii.

Sequence	pKd
EEFVKTQSY	≤ 5.30
FEALHLLYAL	≤ 3.00
GEEATAFLRY	≤ 4.30
IERVFYYFPL	≤ 3.00
IEVVKKYMDY	≤ 3.00
KDIQSIVHHY	≤ 3.00
METPPQSPDF	≤ 3.00
MEVRDLLNSY	≤ 5.30
NEIETATRY	≤ 5.30
REMYSRRRMY	≤ 5.30

Each sequence was assayed against HLA-A*24:02 in the same assay as above. Conditions: source organism: Coxiella burnetii.

Sequence	pKd
GYHSITPYLF	≤ 5.30
IYDDRLLFEF	≤ 5.30
LYDDEFKFL	≤ 5.30
NFSDYIWHF	≤ 5.30
QYLQYLWPL	≤ 5.30
SFVPKFFLTF	≤ 5.30
TYRHNKKLL	≤ 4.30
TYRVLNYKDL	≤ 4.30
WYVVNNNYL	≤ 5.30

Each sequence was assayed against HLA-B*07:02 in the same assay as above. Conditions: source organism: Coxiella burnetii.

Sequence	pKd
KPLQVINRKY	≤ 3.00
LPQKPWWKF	≤ 3.00
LPRNRYRLVF	≤ 5.30
LPRRHNFYNY	≤ 3.00
SPHPRVNQF	≤ 5.30
TPDFPQLFF	≤ 4.30
TPTFVIGNKA	≤ 3.00
